Results taken from patent US20140011213A1.

Target: BAP-CD59a reporter, biotinylated in vitro by BirA (on CHO-S cells) (mouse)
Experiment: FACS; CHO-S transfected with BAP-CD59a, incubated with BirA and stained with F-SA (non-transfected stained control MFI-69)

Chain of BAP-CD59a reporter, biotinylated in vitro by BirA (on CHO-S cells) (mouse) (chain, as listed by the source): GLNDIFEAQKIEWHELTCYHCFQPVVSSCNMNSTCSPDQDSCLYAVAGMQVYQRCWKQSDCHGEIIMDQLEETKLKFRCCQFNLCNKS

MFI: 24400
Substance: R-Phycoerythrin-conjugated Streptavidin (from UniProt P22629 37-163)
